Article PMC4770229, “Nuclear factor 90 uses an ADAR2-like binding mode to recognize specific bases in dsRNA”

What was measured:
NF90dsRBDs = target: T1, NF90dsRBDs (mouse, UniProt Q9Z1X4 380-592); assay: fluorescence anisotropy; EMSA: 20 mM HEPES pH 7.5, 150 mM K acetate, on ice, 1 uM RNA (competition 0.5 uM complex); FA: same buffer, 23.5 C, 250 nM RNA; ITC: 20 mM HEPES pH 7.5, 50 mM NaCl, 25 C; conditions: protein: recombinant; tags: GST removed by TEV; label: 5' Cy3 on strand 1; blunt
T1 sequence: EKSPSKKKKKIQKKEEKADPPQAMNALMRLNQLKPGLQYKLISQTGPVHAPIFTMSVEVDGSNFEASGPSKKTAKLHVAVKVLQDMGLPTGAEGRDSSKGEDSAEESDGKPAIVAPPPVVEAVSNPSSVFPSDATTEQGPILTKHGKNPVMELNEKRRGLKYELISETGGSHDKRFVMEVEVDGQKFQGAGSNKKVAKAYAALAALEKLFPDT

NF90long;NF45-deltaN28 = NF90long;NF45-deltaN28 (mouse;mouse, UniProt Q9Z1X4;Q9CXY6 1-590;28-390, |); assay: as above; conditions: protein: recombinant;recombinant; tags: 6xHis removed by TEV;6xHis removed by TEV; copies: 1;1; label: 5' Cy3 on strand 1; blunt
NF90dsRBDs-deltaNLS = target: T2, NF90dsRBDs-deltaNLS (mouse, UniProt Q9Z1X4 393-592); assay: ITC; apparent Kd; unit as printed (mM), possibly uM misprint; 1:2 RNA:protein; EMSA: 20 mM HEPES pH 7.5, 150 mM K acetate, on ice, 1 uM RNA (competition 0.5 uM complex); FA: same buffer, 23.5 C, 250 nM RNA; ITC: 20 mM HEPES pH 7.5, 50 mM NaCl, 25 C; conditions: protein: recombinant; tags: GST removed by TEV; chain copies: 2; blunt
T2 sequence: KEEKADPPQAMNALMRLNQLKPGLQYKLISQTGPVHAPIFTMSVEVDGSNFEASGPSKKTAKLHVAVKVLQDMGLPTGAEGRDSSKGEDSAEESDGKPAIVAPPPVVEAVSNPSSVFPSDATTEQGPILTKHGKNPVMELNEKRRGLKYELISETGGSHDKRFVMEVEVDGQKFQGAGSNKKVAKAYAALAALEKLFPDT

[1] = target: NF90-deltaC380;NF45-deltaN28 (with NF90-deltaC380) (mouse?;mouse?, UniProt Q9Z1X4;Q9CXY6 1-380;28-390, |); assay: EMSA; EMSA: 20 mM HEPES pH 7.5, 150 mM K acetate, on ice, 1 uM RNA (competition 0.5 uM complex); FA: same buffer, 23.5 C, 250 nM RNA; ITC: 20 mM HEPES pH 7.5, 50 mM NaCl, 25 C; conditions: protein: recombinant;recombinant; tags: ;; copies: 1;1; label: 5' DY781 on strand 1; blunt
NF90long;NF45 = NF90long;NF45 (mouse;mouse?, UniProt Q9Z1X4;Q9CXY6 1-590;1-390, |); assay: competition; competes DY781 21mer efficiently; EMSA: 20 mM HEPES pH 7.5, 150 mM K acetate, on ice, 1 uM RNA (competition 0.5 uM complex); FA: same buffer, 23.5 C, 250 nM RNA; ITC: 20 mM HEPES pH 7.5, 50 mM NaCl, 25 C; conditions: protein: recombinant;recombinant; tags: 6xHis removed by TEV;6xHis removed by TEV; copies: 1;1; hairpin with mismatches

B1: 21mer dsRNA, Cy3 (dsRNA)
RNA 1: UCACUUUCAUAAUGCUGGAUA
RNA 2: UAUCCAGCAUUAUGAAAGUGA
Kd (NF90dsRBDs): 0.433 ± 0.055 µM
Kd (NF90long;NF45-deltaN28): 0.046 ± 0.016 µM

B2: 18mer dsRNA, 2'F strand (dsRNA)
RNA 1: UCACUUUCAUAAUGCUGG
RNA 2: CCAGCAUUAUGAAAGUGA
modifications: 2'-F ribose uniformly on strand 1
Kd (NF90dsRBDs-deltaNLS): ~2400 µM

B3: 21mer dsRNA, DY781 (dsRNA)
RNA 1: UCACUUUCAUAAUGCUGGAUA
RNA 2: UAUCCAGCAUUAUGAAAGUGA
binding result [1]: no binding

B4: 18mer dsRNA, unmodified (dsRNA)
RNA 1: UCACUUUCAUAAUGCUGG
RNA 2: CCAGCAUUAUGAAAGUGA
Kd (NF90dsRBDs-deltaNLS): ~2400 µM

B5: GluA2(R/G) hairpin RNA (structured_RNA)
RNA: CAUUAAGGUGGGUGGAAUAGUAUAACAAUAUGCUAAAUGUUGUUAUAGUAUCCCACCUACCCUGAUG
binding result (NF90long;NF45): binds
